Assay results published in article doi:10.1101/2025.10.06.680828 (bioRxiv, 2025).

B1: human Drp1 isoform 5 (natural protein)
chain: MEALIPVINKLQDVFNTVGADIIQLPQIVVVGTQSSGKSSVLESLVGRDLLPRGTGIVTRRPLILQLVHVSQEDKRKTTGEENDPATWKNSRHLSKGVEAEEWGKFLHTKNKLYTDFDEIRQEIENETERISGNNKGVSPEPIHLKIFSPNVVNLTLVDLPGMTKVPVGDQPKDIELQIRELILRFISNPNSIILAVTAANTDMATSEALKISREVDPDGRRTLAVITKLDLMDAGTDAMDVLMGRVIPVKLGIIGVVNRSQLDINNKKSVTDSIRDEYAFLQKKYPSLANRNGTKYLARTLNRLLMHHIRDCLPELKTRINVLAAQYQSLLNSYGEPVDDKSATLLQLITKFATEYCNTIEGTAKYIETSELCGGARICYIFHETFGRTLESVDPLGGLNTIDILTAIRNATGPRPALFVPEVSFELLVKRQIKRLEEPSLRCVELVHEEMQRIIQHCSNYSTQELLRFPKLHDAIVEVVTCLLRKRLPVTNEMVHNLVAIELAYINTKHPDFADACGLMNNNIEEQRRNRLARELPSAVSRDKSSKVPSALAPASQEPSPAASAEADGKLIQDSRRETKNVASGGGGVGDGVQEPTTGNWRGMLKTSKAEELLAEEKSKPIPIMPASPQKGHAVNLLDVPVPVARKLSAREQRDCEVIERLIKSYFLIVRKNIQDSVPKAVMHFLVNHVKDTLQSELVGQLYKSSLLDDLLTESEDMAQRRKEAADMLKALQGASQIIAEIRETHLW
B2: human Drp1 isoform 4 (natural protein)
chain: MEALIPVINKLQDVFNTVGADIIQLPQIVVVGTQSSGKSSVLESLVGRDLLPRGTGIVTRRPLILQLVHVSQEDKRKTTGEENGVEAEEWGKFLHTKNKLYTDFDEIRQEIENETERISGNNKGVSPEPIHLKIFSPNVVNLTLVDLPGMTKVPVGDQPKDIELQIRELILRFISNPNSIILAVTAANTDMATSEALKISREVDPDGRRTLAVITKLDLMDAGTDAMDVLMGRVIPVKLGIIGVVNRSQLDINNKKSVTDSIRDEYAFLQKKYPSLANRNGTKYLARTLNRLLMHHIRDCLPELKTRINVLAAQYQSLLNSYGEPVDDKSATLLQLITKFATEYCNTIEGTAKYIETSELCGGARICYIFHETFGRTLESVDPLGGLNTIDILTAIRNATGPRPALFVPEVSFELLVKRQIKRLEEPSLRCVELVHEEMQRIIQHCSNYSTQELLRFPKLHDAIVEVVTCLLRKRLPVTNEMVHNLVAIELAYINTKHPDFADACGLMNNNIEEQRRNRLARELPSAVSRDKSSKVPSALAPASQEPSPAASAEADGKVASGGGGVGDGVQEPTTGNWRGMLKTSKAEELLAEEKSKPIPIMPASPQKGHAVNLLDVPVPVARKLSAREQRDCEVIERLIKSYFLIVRKNIQDSVPKAVMHFLVNHVKDTLQSELVGQLYKSSLLDDLLTESEDMAQRRKEAADMLKALQGASQIIAEIRETHLW
B3: human Drp1 isoform 8 (natural protein)
chain: MEALIPVINKLQDVFNTVGADIIQLPQIVVVGTQSSGKSSVLESLVGRDLLPRGTGIVTRRPLILQLVHVSQEDKRKTTGEENDPATWKNSRHLSKGVEAEEWGKFLHTKNKLYTDFDEIRQEIENETERISGNNKGVSPEPIHLKIFSPNVVNLTLVDLPGMTKVPVGDQPKDIELQIRELILRFISNPNSIILAVTAANTDMATSEALKISREVDPDGRRTLAVITKLDLMDAGTDAMDVLMGRVIPVKLGIIGVVNRSQLDINNKKSVTDSIRDEYAFLQKKYPSLANRNGTKYLARTLNRLLMHHIRDCLPELKTRINVLAAQYQSLLNSYGEPVDDKSATLLQLITKFATEYCNTIEGTAKYIETSELCGGARICYIFHETFGRTLESVDPLGGLNTIDILTAIRNATGPRPALFVPEVSFELLVKRQIKRLEEPSLRCVELVHEEMQRIIQHCSNYSTQELLRFPKLHDAIVEVVTCLLRKRLPVTNEMVHNLVAIELAYINTKHPDFADACGLMNNNIEEQRRNRLARELPSAVSRDKVASGGGGVGDGVQEPTTGNWRGMLKTSKAEELLAEEKSKPIPIMPASPQKGHAVNLLDVPVPVARKLSAREQRDCEVIERLIKSYFLIVRKNIQDSVPKAVMHFLVNHVKDTLQSELVGQLYKSSLLDDLLTESEDMAQRRKEAADMLKALQGASQIIAEIRETHLW
B4: human Drp1 isoform 6 (natural protein)
chain: MEALIPVINKLQDVFNTVGADIIQLPQIVVVGTQSSGKSSVLESLVGRDLLPRGTGIVTRRPLILQLVHVSQEDKRKTTGEENDPATWKNSRHLSKGVEAEEWGKFLHTKNKLYTDFDEIRQEIENETERISGNNKGVSPEPIHLKIFSPNVVNLTLVDLPGMTKVPVGDQPKDIELQIRELILRFISNPNSIILAVTAANTDMATSEALKISREVDPDGRRTLAVITKLDLMDAGTDAMDVLMGRVIPVKLGIIGVVNRSQLDINNKKSVTDSIRDEYAFLQKKYPSLANRNGTKYLARTLNRLLMHHIRDCLPELKTRINVLAAQYQSLLNSYGEPVDDKSATLLQLITKFATEYCNTIEGTAKYIETSELCGGARICYIFHETFGRTLESVDPLGGLNTIDILTAIRNATGPRPALFVPEVSFELLVKRQIKRLEEPSLRCVELVHEEMQRIIQHCSNYSTQELLRFPKLHDAIVEVVTCLLRKRLPVTNEMVHNLVAIELAYINTKHPDFADACGLMNNNIEEQRRNRLARELPSAVSRDKSSKVPSALAPASQEPSPAASAEADGKVASGGGGVGDGVQEPTTGNWRGMLKTSKAEELLAEEKSKPIPIMPASPQKGHAVNLLDVPVPVARKLSAREQRDCEVIERLIKSYFLIVRKNIQDSVPKAVMHFLVNHVKDTLQSELVGQLYKSSLLDDLLTESEDMAQRRKEAADMLKALQGASQIIAEIRETHLW
B5: human Drp1 isoform 2 (natural protein)
chain: MEALIPVINKLQDVFNTVGADIIQLPQIVVVGTQSSGKSSVLESLVGRDLLPRGTGIVTRRPLILQLVHVSQEDKRKTTGEENGVEAEEWGKFLHTKNKLYTDFDEIRQEIENETERISGNNKGVSPEPIHLKIFSPNVVNLTLVDLPGMTKVPVGDQPKDIELQIRELILRFISNPNSIILAVTAANTDMATSEALKISREVDPDGRRTLAVITKLDLMDAGTDAMDVLMGRVIPVKLGIIGVVNRSQLDINNKKSVTDSIRDEYAFLQKKYPSLANRNGTKYLARTLNRLLMHHIRDCLPELKTRINVLAAQYQSLLNSYGEPVDDKSATLLQLITKFATEYCNTIEGTAKYIETSELCGGARICYIFHETFGRTLESVDPLGGLNTIDILTAIRNATGPRPALFVPEVSFELLVKRQIKRLEEPSLRCVELVHEEMQRIIQHCSNYSTQELLRFPKLHDAIVEVVTCLLRKRLPVTNEMVHNLVAIELAYINTKHPDFADACGLMNNNIEEQRRNRLARELPSAVSRDKLIQDSRRETKNVASGGGGVGDGVQEPTTGNWRGMLKTSKAEELLAEEKSKPIPIMPASPQKGHAVNLLDVPVPVARKLSAREQRDCEVIERLIKSYFLIVRKNIQDSVPKAVMHFLVNHVKDTLQSELVGQLYKSSLLDDLLTESEDMAQRRKEAADMLKALQGASQIIAEIRETHLW
B6: human Drp1 isoform 3 (natural protein)
chain: MEALIPVINKLQDVFNTVGADIIQLPQIVVVGTQSSGKSSVLESLVGRDLLPRGTGIVTRRPLILQLVHVSQEDKRKTTGEENGVEAEEWGKFLHTKNKLYTDFDEIRQEIENETERISGNNKGVSPEPIHLKIFSPNVVNLTLVDLPGMTKVPVGDQPKDIELQIRELILRFISNPNSIILAVTAANTDMATSEALKISREVDPDGRRTLAVITKLDLMDAGTDAMDVLMGRVIPVKLGIIGVVNRSQLDINNKKSVTDSIRDEYAFLQKKYPSLANRNGTKYLARTLNRLLMHHIRDCLPELKTRINVLAAQYQSLLNSYGEPVDDKSATLLQLITKFATEYCNTIEGTAKYIETSELCGGARICYIFHETFGRTLESVDPLGGLNTIDILTAIRNATGPRPALFVPEVSFELLVKRQIKRLEEPSLRCVELVHEEMQRIIQHCSNYSTQELLRFPKLHDAIVEVVTCLLRKRLPVTNEMVHNLVAIELAYINTKHPDFADACGLMNNNIEEQRRNRLARELPSAVSRDKVASGGGGVGDGVQEPTTGNWRGMLKTSKAEELLAEEKSKPIPIMPASPQKGHAVNLLDVPVPVARKLSAREQRDCEVIERLIKSYFLIVRKNIQDSVPKAVMHFLVNHVKDTLQSELVGQLYKSSLLDDLLTESEDMAQRRKEAADMLKALQGASQIIAEIRETHLW

Biological target: the molecule itself
Test: mass photometry

Stoichiometry N, 2:
B1
B2
B3
B4
B5
B6
